{
  "source": "paper PMC8716928",
  "about": "“Effect of Mutations in GvpJ and GvpM on Gas Vesicle Formation of Halobacterium salinarum” (Frontiers in Microbiology, 2021)",
  "binders": {"B1": {"name": "GvpJ, entire protein, split-GFP fusion of Figure 7 (natural protein, Halobacterium salinarum, UniProt P24374 1-114, looked up)", "chain": "MSDPKPTRSQGDLAEMLEMLLDKGVVVNADIAVSVGDTELLGIELRAAIASFETAAEYGLEFPTGTDMERVESAANISPDQSDPASETQSETESTNPLSDDSTPTASTSAEETK", "notes": "also called the entire GvpJ; source: Hfx. volcanii transformant, in cells"}, "B2": {"name": "GvpK, split-GFP fusion (natural protein)", "chain": "not shown", "notes": "GvpK, p-vac region of Hbt. salinarum PHH1; no truncation is mentioned; source: Hfx. volcanii transformant, in cells"}, "B3": {"name": "GvpM, entire protein, split-GFP fusion of Figure 7 (natural protein, Halobacterium salinarum, UniProt P24377 1-84, looked up)", "chain": "MEPTKDETHAIVEFVDVLLRDGAVIQADVIVTVADIPLIGISLRAAIAGMTTMTEYGLFEEWDAAHRQQSEAFTTSPTADRRED", "notes": "GvpM, p-vac region of Hbt. salinarum PHH1; printed as 83 aa and as 84 aa; also called the entire GvpM; source: Hfx. volcanii transformant, in cells"}, "B4": {"name": "GvpG, split-GFP fusion (natural protein, Halobacterium salinarum, UniProt P24371 1-83, looked up)", "chain": "MFIIDDLFVSPFFSLLDILQTMALDEMYDTKSIRDDIKENQLLYEVGERSDEEYQQRKQALESQLEMAEQVQEQMRDRMEVKK", "notes": "GvpG, p-vac region of Hbt. salinarum PHH1; no truncation is mentioned; source: Hfx. volcanii transformant, in cells"}, "B5": {"name": "GvpL, entire protein, split-GFP fusion of Figure 7 (natural protein, Halobacterium salinarum, UniProt Q9HI27 1-281, looked up)", "chain": "MTDHRPSPEEEQTTANEERTVSNGRYLYCVVDTTSSESATLSTTGVDDNPVYVVEADGVGAVVHDCETVYETEDLEQVKRWLVTHQQVVDAASDAFGTPLPMRFDTVLEGGDASIERWLEDHYEGFRDELASFAGVWEYRINLLWDSAPFEETIADRDDRLRELRQRQQQSGAGKKFLLEKQSDQRLQELKRERRTELADQLKEAITPVVNDLTEQDTNTPLQDEHSSIEKEQIVRFAVLADEDDETALGDRLDTIVEHEGVEIRFTGPWPPYTFAPDIGK", "notes": "GvpL, p-vac region of Hbt. salinarum PHH1, 32 kDa; also called the entire GvpL; source: Hfx. volcanii transformant, in cells"}, "B6": {"name": "GvpA, entire protein, split-GFP fusion (natural protein, Halobacterium salinarum, UniProt P08958 1-76, looked up)", "chain": "MAQPDSSGLAEVLDRVLDKGVVVDVWARVSLVGIEILTVEARVVAASVDTFLHYAEEIAKIEQAELTAGAEAAPEA", "notes": "GvpA, p-vac region of Hbt. salinarum PHH1, 76 aa; also called the entire GvpA; source: Hfx. volcanii transformant, in cells"}, "B7": {"name": "Fragment A1–22 of GvpA, split-GFP fusion (peptide, UniProt P08958 1-22, looked up)", "chain": "MAQPDSSGLAEVLDRVLDKGVV", "notes": "GvpA, p-vac region of Hbt. salinarum PHH1, first 22 aa including α-helix 1; construct of Völkner et al. 2020; source: Hfx. volcanii transformant, in cells"}, "B8": {"name": "Fragment M1–25 of GvpM, split-GFP fusion of Figure 7 (peptide, UniProt P24377 1-25, looked up)", "chain": "MEPTKDETHAIVEFVDVLLRDGAVI", "notes": "GvpM, p-vac region of Hbt. salinarum PHH1, N-terminal 25 aa; also called M25N; M(25N); source: Hfx. volcanii transformant, in cells"}, "B9": {"name": "Fragment M60–84 of GvpM, split-GFP fusion (peptide, UniProt P24377 60-84, looked up)", "chain": "EEWDAAHRQQSEAFTTSPTADRRED", "notes": "GvpM, p-vac region of Hbt. salinarum PHH1, C-terminal 25 aa; also called M25C; M(25C); source: Hfx. volcanii transformant, in cells"}, "B10": {"name": "GvpH, split-GFP fusion (natural protein, Halobacterium salinarum, UniProt P24372 1-182, looked up)", "chain": "MVPDENDDASDDQSSQLSGLLDQLHTLVEVLADIEEEGGHRHESGRIDRGNARIDYDYDVSIGLGRADGSSYDEEPSSNRSRSEQRSGQQRTTEDSIHVETRGGTSGDELVVVADLPGVTDDDVDVALDTDEQALTLRVDDDVVERVVLDRPDVAITDMTLRNQVLEIRLARTSDTDGGEST", "notes": "GvpH, p-vac region of Hbt. salinarum PHH1; no truncation is mentioned; source: Hfx. volcanii transformant, in cells"}, "B11": {"name": "Fragment A44–76 of GvpA, split-GFP fusion (domain or fragment, Halobacterium salinarum, UniProt P08958 44-76, looked up)", "chain": "VAASVDTFLHYAEEIAKIEQAELTAGAEAAPEA", "notes": "GvpA, p-vac region of Hbt. salinarum PHH1, residues 44–76; construct of Völkner et al. 2020; source: Hfx. volcanii transformant, in cells"}},
  "data": [
    {"target": "T1, Fragment L133–281 of GvpL, split-GFP fusion (Halobacterium salinarum, UniProt Q9HI27 133-281)", "T1 construct": "GvpL, p-vac region of Hbt. salinarum PHH1, residues 133–281 (second of two domains); source: Hfx. volcanii transformant, in cells", "T1 sequence (looked up)": "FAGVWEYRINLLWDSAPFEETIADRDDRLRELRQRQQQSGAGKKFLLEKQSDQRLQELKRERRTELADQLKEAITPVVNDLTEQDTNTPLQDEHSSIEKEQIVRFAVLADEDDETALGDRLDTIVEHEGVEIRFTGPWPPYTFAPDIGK", "assay": "split reporter (BiFC, NanoBiT); split-GFP (mGFP2) in Hfx. volcanii transformants, entire Gvp proteins and fragments (Figure 7); arrangement of the GFP portions not stated; relative fluorescence (rf) of cells against untransformed WR340", "conditions": "partners not purified", "units": {"relative fluorescence (rf)": "rf"}, "values": [
      {"binder": "B1", "relative fluorescence (rf)": "< 2.6"},
      {"binder": "B2", "relative fluorescence (rf)": 6.1},
      {"binder": "B3", "relative fluorescence (rf)": "< 2.6"},
      {"binder": "B4", "relative fluorescence (rf)": "< 2.6"}
    ]},
    {"target": "T2, Fragment J1–56 of GvpJ, split-GFP fusion (Halobacterium salinarum, UniProt P24374 1-56)", "T2 construct": "GvpJ, p-vac region of Hbt. salinarum PHH1, residues 1–56; source: Hfx. volcanii transformant, in cells", "T2 sequence (looked up)": "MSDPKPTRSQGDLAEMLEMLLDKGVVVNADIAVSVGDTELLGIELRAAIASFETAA", "assay": "split reporter (BiFC, NanoBiT); split-GFP (mGFP2) in Hfx. volcanii transformants, entire Gvp proteins and fragments (Figure 7); arrangement of the GFP portions not stated; relative fluorescence (rf) of cells against untransformed WR340", "conditions": "partners not purified", "units": {"relative fluorescence (rf)": "rf"}, "values": [
      {"binder": "B5", "relative fluorescence (rf)": 6.7}
    ]},
    {"target": "B5", "assay": "split reporter (BiFC, NanoBiT); split-GFP (mGFP2) in Hfx. volcanii transformants, entire Gvp proteins and fragments (Figure 7); arrangement of the GFP portions not stated; relative fluorescence (rf) of cells against untransformed WR340", "conditions": "partners not purified", "units": {"relative fluorescence (rf)": "rf"}, "values": [
      {"binder": "B2", "relative fluorescence (rf)": 7.4},
      {"binder": "B4", "relative fluorescence (rf)": 77.5}
    ]},
    {"target": "T3, Fragment L1–134 of GvpL, split-GFP fusion (Halobacterium salinarum, UniProt Q9HI27 1-134)", "T3 construct": "GvpL, p-vac region of Hbt. salinarum PHH1, residues 1–134 (first of two domains); source: Hfx. volcanii transformant, in cells", "T3 sequence (looked up)": "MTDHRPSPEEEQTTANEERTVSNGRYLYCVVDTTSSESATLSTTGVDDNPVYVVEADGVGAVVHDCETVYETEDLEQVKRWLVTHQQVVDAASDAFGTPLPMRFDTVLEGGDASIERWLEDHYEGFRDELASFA", "assay": "split reporter (BiFC, NanoBiT); split-GFP (mGFP2) in Hfx. volcanii transformants, entire Gvp proteins and fragments (Figure 7); arrangement of the GFP portions not stated; relative fluorescence (rf) of cells against untransformed WR340", "conditions": "partners not purified", "units": {"relative fluorescence (rf)": "rf"}, "values": [
      {"binder": "B1", "relative fluorescence (rf)": "< 2.6"},
      {"binder": "B3", "relative fluorescence (rf)": "< 2.6"},
      {"binder": "B4", "relative fluorescence (rf)": "< 2.6"}
    ]},
    {"target": "T4, Fragment J47–114 of GvpJ, split-GFP fusion (Halobacterium salinarum, UniProt P24374 47-114)", "T4 construct": "source: Hfx. volcanii transformant, in cells", "T4 sequence (looked up)": "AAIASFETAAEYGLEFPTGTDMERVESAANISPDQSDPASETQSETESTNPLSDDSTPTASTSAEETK", "assay": "split reporter (BiFC, NanoBiT); split-GFP (mGFP2) in Hfx. volcanii transformants, entire Gvp proteins and fragments (Figure 7); arrangement of the GFP portions not stated; relative fluorescence (rf) of cells against untransformed WR340", "conditions": "partners not purified", "units": {"relative fluorescence (rf)": "rf"}, "values": [
      {"binder": "B1", "relative fluorescence (rf)": "< 5"},
      {"binder": "B2", "relative fluorescence (rf)": "< 5"},
      {"binder": "B3", "relative fluorescence (rf)": "< 5"}
    ]},
    {"target": "T5, Fragment F1–110 of GvpF, split-GFP fusion (Halobacterium salinarum, UniProt Q9HI21 1-110)", "T5 construct": "GvpF, p-vac region of Hbt. salinarum PHH1, residues 1–110 (first of two domains); source: Hfx. volcanii transformant, in cells", "T5 sequence (looked up)": "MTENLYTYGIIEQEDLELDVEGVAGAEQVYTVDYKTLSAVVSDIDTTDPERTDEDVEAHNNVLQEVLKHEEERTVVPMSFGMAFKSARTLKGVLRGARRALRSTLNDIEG", "assay": "split reporter (BiFC, NanoBiT); split-GFP (mGFP2) in Hfx. volcanii transformants, entire Gvp proteins and fragments (Figure 7); arrangement of the GFP portions not stated; relative fluorescence (rf) of cells against untransformed WR340", "conditions": "partners not purified", "units": {"relative fluorescence (rf)": "rf"}, "values": [
      {"binder": "B6", "relative fluorescence (rf)": "< 4"},
      {"binder": "B7", "relative fluorescence (rf)": "< 4"}
    ]},
    {"target": "T6, GvpF, entire protein, split-GFP fusion (Halobacterium salinarum, UniProt Q9HI21 1-213)", "T6 construct": "GvpF, p-vac region of Hbt. salinarum PHH1, 23 kDa; also called the entire GvpF; source: Hfx. volcanii transformant, in cells", "T6 sequence (looked up)": "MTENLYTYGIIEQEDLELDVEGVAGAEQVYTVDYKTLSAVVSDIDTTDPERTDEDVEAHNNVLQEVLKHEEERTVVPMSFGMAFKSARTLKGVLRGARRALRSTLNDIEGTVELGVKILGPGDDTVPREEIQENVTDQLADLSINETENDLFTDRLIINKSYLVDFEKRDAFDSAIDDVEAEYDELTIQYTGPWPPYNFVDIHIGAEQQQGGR", "assay": "split reporter (BiFC, NanoBiT); split-GFP (mGFP2) in Hfx. volcanii transformants, entire Gvp proteins and fragments (Figure 7); arrangement of the GFP portions not stated; relative fluorescence (rf) of cells against untransformed WR340", "conditions": "partners not purified", "units": {"relative fluorescence (rf)": "rf"}, "values": [
      {"binder": "B6", "relative fluorescence (rf)": 20},
      {"binder": "B7", "relative fluorescence (rf)": 41}
    ]},
    {"target": "T2, Fragment J1–56 of GvpJ, split-GFP fusion", "assay": "split reporter (BiFC, NanoBiT); split-GFP (mGFP2) in Hfx. volcanii transformants, entire Gvp proteins and fragments (Figure 7); arrangement of the GFP portions not stated; relative fluorescence (rf) of cells against untransformed WR340", "conditions": "partners not purified", "remark": "another data set of the same source", "units": {"relative fluorescence (rf)": "rf"}, "values": [
      {"binder": "B8", "relative fluorescence (rf)": 20},
      {"binder": "B5", "relative fluorescence (rf)": 20},
      {"binder": "B7", "relative fluorescence (rf)": 10},
      {"binder": "B9", "relative fluorescence (rf)": 20}
    ]},
    {"target": "T4, Fragment J47–114 of GvpJ, split-GFP …", "assay": "split reporter (BiFC, NanoBiT); split-GFP (mGFP2) in Hfx. volcanii transformants, entire Gvp proteins and fragments (Figure 7); arrangement of the GFP portions not stated; relative fluorescence (rf) of cells against untransformed WR340", "conditions": "partners not purified", "remark": "another data set of the same source", "units": {"relative fluorescence (rf)": "rf"}, "values": [
      {"binder": "B10", "relative fluorescence (rf)": 13},
      {"binder": "B11", "relative fluorescence (rf)": 5},
      {"binder": "B8", "relative fluorescence (rf)": 20},
      {"binder": "B5", "relative fluorescence (rf)": 11},
      {"binder": "B4", "relative fluorescence (rf)": 15},
      {"binder": "B7", "relative fluorescence (rf)": 5},
      {"binder": "B9", "relative fluorescence (rf)": 20}
    ]}
  ]
}
